Results from patent US7932362B2, “Antibodies to NRIF3 proteins” (New York University, priority 1999, dated 2011).

T1: cTRα (Gallus gallus, UniProt P04625)
T1 sequence (P04625 1-408): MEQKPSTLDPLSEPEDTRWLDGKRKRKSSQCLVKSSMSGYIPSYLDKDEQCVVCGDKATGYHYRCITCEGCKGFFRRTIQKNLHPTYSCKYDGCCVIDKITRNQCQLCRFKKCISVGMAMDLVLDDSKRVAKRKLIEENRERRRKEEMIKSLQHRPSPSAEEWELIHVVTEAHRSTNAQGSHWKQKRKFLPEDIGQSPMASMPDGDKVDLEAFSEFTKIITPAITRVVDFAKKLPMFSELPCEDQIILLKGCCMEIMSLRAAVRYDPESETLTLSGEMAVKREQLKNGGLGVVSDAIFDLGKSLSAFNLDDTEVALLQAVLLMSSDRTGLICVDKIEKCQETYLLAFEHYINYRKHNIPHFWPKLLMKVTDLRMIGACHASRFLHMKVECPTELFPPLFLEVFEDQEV


What was measured:
[1] = tested on: endogenous RAR(s); test: Transfection study, CAT reporter in HeLa cells, endogenous RAR(s); type: cell-based, human; conditions: 1 μM, HeLa cells without receptor expression vector, FIG. 6A
Source text: (§1) Transfection studies. Most reporters used in this study have been described previously, including IR-ΔMTV-CAT, DR4-ΔMTV-CAT, GH-TRE-tk-CAT, IR+3 (ERE)-ΔMTV-CAT (5, 25, 78). A DR1-ΔMTV-CAT reporter responsive to RXR was obtained from Ron Evans. A GRE/PRE-tk-CAT reporter was obtained from Gunther Schutz. The (IR)2-TATA-CAT was constructed in our laboratory by cloning two copies of the IR sequence (AGGTCA TGACCT) upstream of a TATA element derived from the tk promoter. A hVDR expression vector and the VDRE-ΔMTV-CAT containing the VDRE from the osteocalcin promoter were obtained from J. Wesley Pike. Vectors expressing cTRα, hRARα, hRXRα, rGR, hPR, and hER have been described previously (17, 25, 26, 50, 53, 81). The NRIF3 expression vector was constructed by cloning full length NRIF3 into a pExpress vector (25). Appropriate plasmids were transfected into HeLa cells by calcium phosphate co-precipitation using 25-100 ng of the receptors, 250-500 ng of the CAT reporters, and 750 ng of the NRIF3 or control pExpress vector. After transfection, cells were incubated at 37° C. (with or without cognate ligands) for 42 hours before being harvested. […] Relative CAT activity was determined as the percent acetylation of substrate per 30 μg of cell protein in a 15 hour incubation at 37° C. The results were calculated from duplicate or quadruplicate samples and the variation among samples was less than 10%.

[2] = target: T1, cTRα; test: Transfection study, CAT reporter in HeLa cells, TR-mediated transactivation; type: cell-based, chicken; conditions: IR-ΔMTV-CAT reporter, 1 μM T3, FIG. 5A
Source text: as §1

[3] = tested on: B42-RAR LBD; test: Yeast two-hybrid assay, LexA-NCD bait with prey B42-RAR LBD; type: cell-based, human; conditions: cognate ligand, FIG. 11
Experimental: The following receptor baits were used: LexA-cTRα LBD, LexA-hTRβ LBD, LexA-hRARα LBD, LexA-hRXRα LBD, and LexA-hGR LBD. The NRIF3 C-terminal domain (NCD) was fused in frame with the LexA DBD and examined for interaction with receptor LBDs using the following preys: B42-cTRα LBD, B42-hRARα LBD, and B42-hRXRα LBD expressed from pJG4-5. Yeast cells harboring appropriate plasmids were grown in selective media with Gal/Raf in the presence or absence of cognate ligand (1 μM T3 for TR, all trans or 9-cis RA for RAR, 9-cis RA for RXR, and 10 μM deoxycorticosterone for GR) overnight before β-galactosidase activity was assayed using o-Nitrophenyl β-D-Galactopyranoside as the substrate. β-galactosidase units are expressed as (O.D. 420 nm×1000)/(minutes of incubation×O.D. 600 nm of yeast suspension).
To construct the bait plasmid expressing LexA-NCD, a derivative of pEG202 (which contains a new polylinker) plasmid was digested with NcoI and XhoI and ligated to synthetic oligonucleotides that encode the last 16 amino acids of NRIF3 (residues 162-177). Similarly, mutant NCD was generated by using oligonucleotides that contain the designed mutations in the ligation reaction. All constructs were confirmed by sequence analysis. […]

[4] = tested on: receptor-mediated transcription; test: Transfection studies with endonexins (data not shown); type: cell-based
Source text: as §1

[5] = target: LexA-RXR (Homo sapiens, UniProt P19793); conditions: yeast two-hybrid, 1 μM 9-cis RA, FIG. 8B
[6] = target: LexA-TR (Gallus gallus, UniProt P04625); conditions: yeast two-hybrid, 1 μM T3, FIG. 8B

Sequence of LexA-RXR (P19793 227-462): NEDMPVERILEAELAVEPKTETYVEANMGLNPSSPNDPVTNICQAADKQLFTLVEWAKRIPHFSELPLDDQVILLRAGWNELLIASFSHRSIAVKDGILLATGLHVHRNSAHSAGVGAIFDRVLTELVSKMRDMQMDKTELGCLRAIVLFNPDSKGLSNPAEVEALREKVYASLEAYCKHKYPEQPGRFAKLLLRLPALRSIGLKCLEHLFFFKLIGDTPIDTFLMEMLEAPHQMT
Sequence of B42-RAR LBD (P10276 183-417 limits assumed): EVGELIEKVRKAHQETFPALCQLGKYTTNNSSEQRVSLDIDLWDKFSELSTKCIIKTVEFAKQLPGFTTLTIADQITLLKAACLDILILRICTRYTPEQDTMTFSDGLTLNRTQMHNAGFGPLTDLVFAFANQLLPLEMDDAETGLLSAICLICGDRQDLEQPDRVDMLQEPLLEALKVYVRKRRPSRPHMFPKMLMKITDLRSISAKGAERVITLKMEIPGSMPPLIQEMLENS

Molecule | effect on receptor-mediated transcription [4] | interaction with liganded RXR [5] | interaction with liganded TR [6] | also measured
C/C(=C\c1ccc(C(=O)O)cc1)c1ccc2c(c1)C(C)(C)CCC2(C)C [TTNPB] | – | – | – | activation of the IR-ΔMTV-CAT reporter by ligand [1]: activates
CBP: reported co-activator for nuclear receptors, used as a control | – | – | – | enhancement of TR-mediated activation of the CAT reporter [2]: around 3 fold
NCD: C-terminal domain of NRIF3, amino acids 162-177; docked as 17-residue peptide KASRHLDSYEFLKAILN (SEQ ID NO:7) (C-terminal peptide of NRIF3) | – | – | – | interaction with the LBD of RAR [3]: interact efficiently
EnS: β3-endonexin short form, 111 amino acids, identical to the first 111 residues of NRIF3 (protein) MPVKRSLKLDGLLEENSFDPSKITRKKSVITYSPTTGTCQMSLFASPTSSEEQKHRNGLSNEKRKKLNHPSLTESKESTTKDNDEFMMLLSKVEKLSEEIMEIMQNLSSIQ | little effect | completely abolished | completely abolished | –
EnL: β3-endonexin long form, 170 amino acids, alternatively spliced product of the same gene as NRIF3 (protein) MPVKRSLKLDGLLEENSFDPSKITRKKSVITYSPTTGTCQMSLFASPTSSEEQKHRNGLSNEKRKKLNHPSLTESKESTTKDNDEFMMLLSKVEKLSEEIMEIMQNLSSIQALEGSRELENLIGISCASHFLKREMQKTKELMTKVNKQKLFEKSTGLPHKGQPQMSPQL | little effect | completely abolished | completely abolished | –
